The test system of series [1] is MS2 coat protein. As to the kind of experiment: apparent KD of MS2 coat protein, switch ON state; designed switch direction (-1 OFF switch, 1 ON switch): 1; higher = weaker reporter binding. The conditions noted are these: FMN input: 0 or 200 uM; Eterna round: R93 (includes R88 designs). The essentials: (§1)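 With or without constant ligand, designed RNA switches in 100 mM Tris-HCl pH 7.5, 80 mM KCl and 4 mM MgCl2 were titrated with SNAP-549-labelled MS2 coat protein. Concentrations went up in twofold steps from 0.7 or 1.5 nM to 3 µM. The switches had been transcribed on-chip from Illumina sequencing clusters, and apparent KD is the per-design median of normalised cluster binding-curve fits.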

Series [2] has as its system MS2 coat protein. Briefly: apparent KD of MS2 coat protein, switch OFF state (with FMN for OFF switches, without FMN for ON switches); designed switch direction (-1 OFF switch, 1 ON switch): 1; higher = weaker reporter binding. The note with it: FMN input: 0 or 200 uM; Eterna round: R93 (includes R88 designs). The method, boiled down: as §1

The record followed here is the supplement of paper PMC9170038.

In the case of “GGGAGACAUGAGGAUCACCCAUGUGAGAAGAGGCGAGGAUAUCGAAAGAAAGAAGAGAAACGAGAAGGCGCGAGAG [salish99-SS1-057]”, the “apparent KD of MS2 coat protein” value in series [1] was found to be 48 nM; in series [2], 59.8 nM.
The like results for “AAAUAAAGGACUGAGGAUAUACCACAUGAAACAUGAGGAUCACCCAUGUUGAAAAACAGAGGGUGGUAGAAGGUAGUCCACAAAC [Same State 2.5b ( so lets mod hyphema)]” were, in that order, 21.4 nM and 51.3 nM.
The like results for “AGAAGACAUGAGGAUCACCCAUGUGGGAAUAUGGGAGGAUAUACAAAGACGAGAGUCAGAGUAGAAGGCCUAGGAC [salish99-ss1-94]” were, in that order, 30.5 nM and 81 nM.
Take “GAAAAACAUGAGGAUCACCCAUGUGUAAACAUGGGAGGAUAUACAAAGACGUAAGUCAAAGUAGAAGGCCUAAGAG [Garnet 37]”: the “apparent KD of MS2 coat protein” value in series [1] worked out at 128 nM; in series [2], 15.3 nM.
The like results for “AAAGACACAGUGCAGGAUAUGGUAAUAGUCACAUGAGGAUCACCCAUGUUCUUUUAUAAGAACGAUCAGAAGGGCGGUGAAAAAA [SameState2 Malc#12]” were, in that order, 111 nM and 295 nM.
The like results for “AAAUUACAUGAGGAUCACCCAUGUAGCGACGUUACAGGAUAUGUGGGUGAAAAUAGCAUGACAGAAGGGUACCGUA [SameState1 Malc#39]” were, in that order, 77 nM and 60.8 nM.
As for “AUUUAACAUGAGGAUCACCCAUGUAGGAAUACUGCAGGAUAUCGACACGAAAAUACGUGUCGAGAAGGGCAUGAAA [SS1 MT 25]”, the “apparent KD of MS2 coat protein” value in series [1] is 13.8 nM; in series [2], 22 nM.
The like results for “AAAGAAAAACUAGAGGAUAUCCGAGUGGUAACAUGAGGAUCACCCAUGUGAAGAAAGGAACAUAUGGAGAAGGCUAGAAGAAAAA [JL Nando Mod 4]” were, in that order, 63.5 nM and 438 nM.
The like results for “AUAAAAGAAGCGAAGGAUAUCCAAAGAACCACAUGAGGAUCACCCAUGUAAAGAAAGAAAAAGUGGGAGAAGGUCGCAAAGAAUA [73%, More Fisker Same State 2, D3, 5]” were, in that order, 26.6 nM and 53.7 nM.
“AAGAAACAUGAGGAUCACCCAUGUAGAAAUAUGGGAGGAUAUACAAGGACGAGAGUCAAGGUAGAAGGCCUAAGAA [Mat - Same State 1 - Meechl mod - D134]”: the “apparent KD of MS2 coat protein” value stood at 17.6 nM in series [1] and 111 nM in series [2].
Turning to “AUAAAAGAAGCGAAGGAUAUCCAAAAACCAACAUGAGGAUCACCCAUGUAAAGAAAGAAAAAAUGGGAGAAGGUCGCAAAGAAUA [73%, More Fisker Same State 2, D3, 8]”, the “apparent KD of MS2 coat protein” value came to 11.8 nM in series [1] and 17.7 nM in series [2].
As to “GGAAGACAUGAGGAUCACCCAUGUGGGAAUAUGGGAGGAUAUACAAAGACGAGAGUCAGAGUAGAAGGCCUAGGAG [salish99-ss1-101]”, the “apparent KD of MS2 coat protein” value in series [1] worked out at 68.2 nM; in series [2], 106 nM.
In the case of “AAACCACAUGAGGAUCACCCAUGUGUAAAAAAUACAGGAUAUGGAAACACGAAAGUGAAACCAGAAGGGUGAAAAA [77%, Mat - Mod of Eli, 30]”, the “apparent KD of MS2 coat protein” value in series [1] was determined as 19 nM; in series [2], 24.3 nM.
The like results for “ACUUCACAUGAGGAUCACCCAUGUCAGGCCGGACUAGGAUAUUAUAAACCAGAGUAAAAAUAAGAAGGAGUAGGAA [JR_SS001_Sub311]” were, in that order, 67.9 nM and 75.2 nM.
For “AACCAACAUGAGGAUCACCCAUGUAGAAAUAUGGGAGGAUAUACAAACACGAAAGUGAAAGUAGAAGGCCUAAAAG [77%, Mat - Mod of Eli, 6]”, the “apparent KD of MS2 coat protein” value stood at 22.5 nM in series [1] and 125 nM in series [2].
The like results for “AAACCACAUGAGGAUCACCCAUGUAAAAUAUACAUAGGAUAUGCGAAAAGAAACAAAGAAGCAGAAGGGUGAAAAA [75%, Ex sub1, 16]” were, in that order, 36.4 nM and 32.1 nM.
